# Key:
# [1] = target: T1, CTX-M-15 (Escherichia coli, UniProt A0A5R8T042, S73A); assay: biochemical
# T1 construct: gene bla
# [2] = target: T2, CTX-M-15 (Escherichia coli, UniProt A0A5R8T042); assay: inhibition of ceftiofur hydrolysis, absorbance; format: biochemical
# T2 construct: gene bla; blaCTX-M-15 in pET200 TOPO, E. coli BL21(DE3); DEAE and hydroxyapatite purification; three molecules per asymmetric unit
# [3] = test system: CO/N=C(\C(=O)N[C@@H]1C(=O)N2C(C(=O)O)=C(CS)CS[C@H]12)c1csc(N)n1; assay: purified protein; format: biochemical, Escherichia coli; conditions: PBS pH 7.4, 10 nM enzyme, acyl-enzyme structure, covalent
# [4] = test system: O=C(Cc1cccs1)N[C@@H]1C(=O)N2C(C(=O)O)=C(/C=C/c3ccc([N+](=O)[O-])cc3[N+](=O)[O-])CS[C@H]12; assay: purified protein; format: biochemical, Escherichia coli; conditions: PBS pH 7.4, 10 nM enzyme
# [5] = test system: CO/N=C(\C(=O)N[C@@H]1C(=O)N2C(C(=O)O)=C(CSC(=O)c3ccco3)CS[C@H]12)c1csc(N)n1; assay: purified protein; format: biochemical, Escherichia coli; conditions: PBS pH 7.4, 10 nM enzyme
# [6] = test system: CC1(C)S[C@@H]2[C@H](NC(=O)[C@H](N)c3ccccc3)C(=O)N2[C@H]1C(=O)O; assay: purified protein; format: biochemical, Escherichia coli; conditions: PBS pH 7.4, 10 nM enzyme, acyl-enzyme structure, covalent
molecule,measurement,setting,value
CC1(C)S[C@@H]2[C@H](NC(=O)[C@H](N)c3ccccc3)C(=O)N2[C@H]1C(=O)O [ampicillin],Kd,[1],28.8 µM
CO/N=C(\C(=O)N[C@@H]1C(=O)N2C(C(=O)O)=C(CSC(=O)c3ccco3)CS[C@H]12)c1csc(N)n1 [ceftiofur],Kd,[1],38.2 µM
O=C(O)[C@H]1/C(=C/CO)O[C@@H]2CC(=O)N21 [clavulanic acid],Ki,[2],22 ± 7 nM
same,Kd,[1],289 µM
CO/N=C(\C(=O)N[C@@H]1C(=O)N2C(C(=O)O)=C(CS)CS[C@H]12)c1csc(N)n1 [desfuroylceftiofur],Kd,[1],10.7 µM
O=C(Cc1cccs1)N[C@@H]1C(=O)N2C(C(=O)O)=C(/C=C/c3ccc([N+](=O)[O-])cc3[N+](=O)[O-])CS[C@H]12 [nitrocefin],Kd,[1],71.3 µM
CTX-M-15 (Escherichia coli O25b:H4),Km,[3],141.2 ± 11.2 µM
same,Vmax,[3],293 µmol/min
same,kcat,[3],490 ± 16.2 s⁻¹
same,kcat/Km,[3],3.46e+06 ± 140000 M⁻¹ s⁻¹
same,Km,[4],1047.0 ± 75.8 µM
same,Vmax,[4],203 µmol/min
same,Km,[5],330.0 ± 14.1 µM
same,Vmax,[5],188 µmol/min
same,kcat,[5],314 ± 13 s⁻¹
same,kcat/Km,[5],950000 ± 10000 M⁻¹ s⁻¹
same,Km,[6],197.8 ± 13.0 µM
same,Vmax,[6],60.6 µmol/min
same,kcat,[6],102 ± 5.6 s⁻¹
same,kcat/Km,[6],520000 ± 10000 M⁻¹ s⁻¹

# Source: PMC9100253 (International Journal of Molecular Sciences, 2022)
